The results in this text go back to paper PMC5109244, “A pH‐ and ionic strength‐dependent conformational change in the neck region regulates DNGR‐1 function in dendritic cells” (The EMBO Journal, 2016).

The data set concerns the molecule itself. Put plainly: non-reducing SDS-PAGE and Western blot; supernatants of 293F cells with FLAG-tagged ECD proteins, Laemmli buffer without reducing agent, HRP-conjugated anti-FLAG detection.

Usually stoichiometry N stands for a count of units in the complex or per binding partner.

B1: human DNGR-1 ECD (extracellular domain of human DNGR-1) (domain or fragment)
chain: not shown
modifications: glycosylated (mobility augmented by PNGase F)
notes: human DNGR-1 (CLEC9A), single isoform, extracellular domain K57–V241; Disulfide-bonded homodimer; also called human ECD; human isoform; source: 293F cells, transient transfection
Consider B1, for which the “stoichiometry N” value is 2.
